# From patent US20150337053A1
# Key:
# [1] = biological target: human FcγRIIIa (Example 1) (human) (UniProt P08637); assay: SPR (Biacore 3000), His-tagged receptor captured on anti-His IgG, antibody injected; steady state fit
# [2] = biological target: human FcγRIIa (Example 1, allotype not stated) (human) (UniProt P12318); assay: as above
# human FcγRI (human) [3] = biological target: human FcγRI (human) (UniProt P12314); assay: as above
# [4] = biological target: human FcγRIIIa (Example 1) (human) (UniProt P08637); assay: SPR (Biacore 3000), His-tagged receptor captured on anti-His IgG, antibody injected; 1:1 kinetic fit
# human FcγRI (human) [5] = biological target: human FcγRI (human) (UniProt P12314); assay: as above
# Sequence of human FcγRI (human) (P12314 16-288 limits assumed): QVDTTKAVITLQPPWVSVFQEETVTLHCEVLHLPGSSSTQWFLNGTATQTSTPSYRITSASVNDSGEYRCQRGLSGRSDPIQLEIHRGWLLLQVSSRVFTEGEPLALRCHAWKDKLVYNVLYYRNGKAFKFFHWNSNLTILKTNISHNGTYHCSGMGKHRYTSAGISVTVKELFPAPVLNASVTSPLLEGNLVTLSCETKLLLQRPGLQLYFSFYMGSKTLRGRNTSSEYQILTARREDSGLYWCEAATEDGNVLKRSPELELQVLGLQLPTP
# Sequence of human FcγRIIIa (Example 1) (human) (P08637 17-208 F176V limits assumed): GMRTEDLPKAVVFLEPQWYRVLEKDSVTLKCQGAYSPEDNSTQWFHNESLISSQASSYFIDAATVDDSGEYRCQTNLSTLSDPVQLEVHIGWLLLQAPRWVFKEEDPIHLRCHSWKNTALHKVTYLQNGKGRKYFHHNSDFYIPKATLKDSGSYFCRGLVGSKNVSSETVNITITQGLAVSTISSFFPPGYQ
# Sequence of human FcγRIIa (Example 1, allotype not stated) (human) (P12318 36-218 limits assumed): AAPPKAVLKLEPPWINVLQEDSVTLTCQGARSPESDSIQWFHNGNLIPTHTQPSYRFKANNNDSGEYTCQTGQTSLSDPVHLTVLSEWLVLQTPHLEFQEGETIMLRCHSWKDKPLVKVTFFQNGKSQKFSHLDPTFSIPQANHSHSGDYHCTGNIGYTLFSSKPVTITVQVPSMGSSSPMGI
Kd [1] [µM],Kd [2] [µM],Kd (human FcγRI (human) [3]) [µM],Kd [4] [µM],Kd (human FcγRI (human) [5]) [µM],Substance
55,150,15,,,"huIgG4 Ala-Ala, Ser-Pro (S228P, F234A, L235A) (antibody)"
95,2.7,210,,,"huIgG2m4 (H268Q, V309L, A330S, P331S) (antibody)"
41,1,120,,,"huIgG2 (wild type human IgG2 isotype, anti-Her2/neu construct) (antibody)"
,19,,0.64,0.044,"huIgG2c4c (V234A, G237A, H268A, V309L, A330S, P331S) (antibody)"
> 95,> 170,> 210,,,"huIgG2c4e (P233S, V234A, G237A, P238S, H268A, V309L, A330S, P331S) (antibody)"
85,2.2,160,,,"huIgG2c4a (H268A, V309L, A330S, P331S) (antibody)"
> 95,> 170,3.7,,,"huIgG1-Ag (aglycosylated IgG1, N297A) (antibody)"
,0.7,,,0.013,"huIgG1 (wild type human IgG1 isotype, anti-Her2/neu construct) (antibody)"
> 95,170,38,,,"huIgG2c4b (V234A, G237A, H268Q, V309L, A330S, P331S) (antibody)"
> 95,> 170,> 210,,,"huIgG2c4d (V234A, G237A, P238S, H268A, V309L, A330S, P331S) (antibody)"
